Here are results for 2 molecules from patent publication US20220363758A1 (SORRENTO THERAPEUTICS, published 2022).

Where “and” joins values, the source holds several entries; their conditions need not be identical. Identical values can stand only once.

Experiment [1] deals with T1, Recombinant human CD38-his tag (human, UniProt P28907 43-300).
T1 construct: also called recombinant CD38 antigen; CD38 antigen; not shown: his tag
Kind of experiment: SPR (Biacore T200), 1:1 binding model; antigen not named on the sheet, taken as recombinant human CD38-his from Example 9.

The target in experiment [2] is T1, Recombinant human CD38-his tag. Kind of experiment: SPR (Biacore T200), 1:1 binding model; antigen not named on the sheet, taken as recombinant human CD38-his from Example 9; row printed 'BZ1 Pool2 PA', assigned to BZ1S through legends paragraph 161 and paragraph 163. Background: Surface plasmon resonance follows binding to a sensor surface in real time, without labels.
Protocol: Kinetic interactions between bispecific antibodies and CD38 antigen were measured at 25° C. using Biacore T200 surface plasmon resonance (GE Healthcare). Anti-human fragment crystallizable (Fc) antibody (Human Antibody Capture Kit) was immobilized on a Series S CM5 sensor chip to approximately 10000 RU using standard N-Hydroxysuccinimide/1-ethyl-3-(-3-dimethylaminopropyl) carbodiimide hydrochloride (NHS/EDC) coupling methodology. Antibodies (bispecific or mAb, approximately 2 μg/mL) were captured for 60 seconds at a flow rate 10 μL/min. Recombinant human CD38-his tag was serially diluted in running buffer (1×HBS-EP+). All measurements were conducted with a flow rate of 30 μL/min. Surfaces were regenerated with 3M MgCl₂ for 60 s. A 1:1 (Langmuir) binding model was used to fit the data.
Biacore binding kinetics of the CD38×CD3 bispecific antibodies towards each individual antigen as the first and sole binding event were obtained for the target combination: CD38/CD3. The bispecific antibody was immobilized onto a biosensor surface via amine coupled anti human Fc antibodies on a CM5 sensor chip (GE Healthcare) according to the manufacturer's recommendation. […] Some kinetics analysis of the parental mAb (anti-CD38) was performed with 200 seconds association phase and 300 seconds dissociation phase.

B1: BZ1 heterodimeric antibody (bispecific antibody, human IgG1, lambda, L234A L235A)
chain: QVQLVQSGAEVKKPGASVKVSCKASGYTFISYTMHWVRQAPGQGLEWIGYINPRSGYTHYNQKLKDRATLTADKSASTAYMELSSLRSEDTAVYYCARSAYYDYDGFAYWGQGTLVTVSSGGGGSGGGGSGGGGSGGGGSDIQMTQSPSSLSASVGDRVTITCSASSSVSYMNWYQQKPGKAPKRLIYDTSKLASGVPSRFSGSGSGTDFTLTISSLQPEDFATYYCQQWSSNPPTFGGGTKVEIKGGGGSDKTHTCPPCPAPEAAGGPSVFLFPPKPKDTLMISRTPEVTCVVVDVSHEDPEVKFNWYVDGVEVHNAKTKPREEQYNSTYRVVSVLTVLHQDWLNGKEYKCKVSNKALPAPIEKTISKAKGQPREPQVYTLPPSREEMTKNQVSLSCAVKGFYPSDIAVEWESNGQPENNYKTTPPVLDSDGSFFLVSKLTVDKSRWQQGNVFSCSVMHEALHNHYTQKSLSLSPGK
heavy: QVQLVESGGGLVKPGGSLRLSCAASGFTFSDDYMSWIRQAPGKGLEWVASVSNGRPTTYYADSVRGRFTISRDNAKNSLYLQMNSLRAEDTAVYYCAREGWSGEFTDWGQGTLVTVSSASTKGPSVFPLAPSSKSTSGGTAALGCLVKDYFPEPVTVSWNSGALTSGVHTFPAVLQSSGLYSLSSVVTVPSSSLGTQTYICNVNHKPSNTKVDKRVEPKSCDKTHTCPPCPAPEAAGGPSVFLFPPKPKDTLMISRTPEVTCVVVDVSHEDPEVKFNWYVDGVEVHNAKTKPREEQYNSTYRVVSVLTVLHQDWLNGKEYKCKVSNKALPAPIEKTISKAKGQPREPQVYTLPPSREEMTKNQVSLWCLVKGFYPSDIAVEWESNGQPENNYKTTPPVLDSDGSFFLYSKLTVDKSRWQQGNVFSCSVMHEALHNHYTQKSLSLSPGK
light: not shown
notes: Isotype IgG1/LALA, knob-in-hole; also called BZ1 bispecific antibody
Usually Kd stands for the free concentration of one partner at which half of the binding sites on the other are occupied at equilibrium, for simple one-to-one binding. Usually koff stands for a measure of how fast the partners let go of each other. A word on the kon: it is the rate constant with which the complex forms. Turning to B1, in experiment [1], the Kd was 1.08 nM and 0.96 nM; the koff is 0.00213 s⁻¹ and 0.00205 s⁻¹; the on-rate constant (kon) stood at 1.97e+06 M⁻¹ s⁻¹.

B2: BZ1S (bispecific antibody, human IgG1, lambda, L234A L235A)
first polypeptide (anti-CD3 scFv-Fc fusion): QVQLVQSGAEVKKPGASVKVSCKASGYTFISYTMHWVRQAPGQGLEWIGYINPRSGYTHYNQKLKDRATLTADKSASTAYMELSSLRSEDTAVYYCARSAYYDYDGFAYWGQGTLVTVSSGGGGSGGGGSGGGGSGGGGSDIQMTQSPSSLSASVGDRVTITCSASSSVSYMNWYQQKPGKAPKRLIYDTSKLASGVPSRFSGSGSGTDFTLTISSLQPEDFATYYCQQWSSNPPTFGGGTKVEIKGGGGSDKTHTCPPCPAPEAAGGPSVFLFPPKPKDTLMISRTPEVTCVVVDVSHEDPEVKFNWYVDGVEVHNAKTKPREEQYNSTYRVVSVLTVLHQDWLNGKEYKCKVSNKALPAPIEKTISKAKGQPREPQVYTLPPSREEMTKNQVSLSCAVKGFYPSDIAVEWESNGQPENNYKTTPPVLDSDGSFFLVSKLTVDKSRWQQGNVFSCSVMHEALHNHYTQKSLSLSPGK
second polypeptide (anti-CD38 heavy chain): QVQLVESGGGLVKPGGSLRLSCAASGFTFSDDYMSWIRQAPGKGLEWVASVSSGRPTTYYADSVRGRFTISRDNAKNSLYLQMNSLRAEDTAVYYCAREGWSGEFTDWGQGTLVTVSSASTKGPSVFPLAPSSKSTSGGTAALGCLVKDYFPEPVTVSWNSGALTSGVHTFPAVLQSSGLYSLSSVVTVPSSSLGTQTYICNVNHKPSNTKVDKRVEPKSCDKTHTCPPCPAPEAAGGPSVFLFPPKPKDTLMISRTPEVTCVVVDVSHEDPEVKFNWYVDGVEVHNAKTKPREEQYNSTYRVVSVLTVLHQDWLNGKEYKCKVSNKALPAPIEKTISKAKGQPREPQVYTLPPSREEMTKNQVSLWCLVKGFYPSDIAVEWESNGQPENNYKTTPPVLDSDGSFFLYSKLTVDKSRWQQGNVFSCSVMHEALHNHYTQKSLSLSPGK
third polypeptide (anti-CD38 light chain): not shown
notes: also called BZ1S heterodimeric antibody; BZ1S bispecific antibody
As for B2, in experiment [2], the Kd stood at 0.909 nM, the koff came out at 0.00194 s⁻¹ and the on-rate constant (kon) stood at 2.14e+06 M⁻¹ s⁻¹.
